Test results taken from PMC12329598.

Assays:
[1] = target: 1-442 Rap1GAP1a-RlucII, P47736-1; assay: ebBRET (agonist-induced net BRET, Rap1GAP1a-RlucII recruitment to the plasma membrane); conditions: 10 μM DAMGO; parent: est. 0.22; read off a plot
[2] = target: 1-442 Rap1GAP1a-RlucII, P47736-1; assay: ebBRET (Rap1GAP1a-RlucII recruitment to rGFP-CaaX at the plasma membrane); conditions: A293 cells with μ-opioid receptor, 48 h post-transfection, read off a plot
[3] = target: 1-442 Rap1GAP1a-RlucII, P47736-1; assay: ebBRET (Rap1GAP1a-RlucII recruitment to the plasma membrane); conditions: A293 cells, parent: est. 0.17, read off a plot
[4] = double mutant in Gαo(Q205L) background, Gαo(Q205L) bar in same panel est. 0.39

Sequence of 1-442 Rap1GAP1a-RlucII, P47736-1 (P47736 1-442 S437A/S439A/S441A): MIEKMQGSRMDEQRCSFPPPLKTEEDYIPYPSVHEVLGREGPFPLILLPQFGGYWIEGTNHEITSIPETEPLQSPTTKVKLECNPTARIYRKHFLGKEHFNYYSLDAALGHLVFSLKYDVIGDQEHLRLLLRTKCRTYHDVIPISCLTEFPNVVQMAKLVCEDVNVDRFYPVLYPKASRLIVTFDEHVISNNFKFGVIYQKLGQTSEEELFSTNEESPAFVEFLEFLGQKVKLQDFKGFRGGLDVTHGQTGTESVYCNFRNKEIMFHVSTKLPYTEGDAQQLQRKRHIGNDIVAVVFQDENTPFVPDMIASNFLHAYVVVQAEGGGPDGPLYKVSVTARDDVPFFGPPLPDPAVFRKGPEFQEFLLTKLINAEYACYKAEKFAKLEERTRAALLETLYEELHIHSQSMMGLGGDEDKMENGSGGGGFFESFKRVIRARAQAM

Substance	response [1] [Net BRET]	response ([2]; 10 μM DAMGO, parent: est. 0.32) [BRET ratio]	response ([2]; vehicle, parent: est. 0.12) [BRET ratio]	response ([3]; no-Gαo control bar est. 0.07) [BRET ratio]	response [3, 4] [BRET ratio]
HA-Gαo^(WT) (from UniProt P09471) R209H	0.015	0.045	0.035	–	–
HA-Gαo^(WT) (from UniProt P09471) R209C	0.012	0.04	0.03	–	–
HA-Gαo^(WT) (from UniProt P09471) Q205L; R209C	–	–	–	–	0.035
HA-Gαo^(WT) (from UniProt P09471) Q205L; G203E	–	–	–	–	0.085
HA-Gαo^(WT) (from UniProt P09471) A221D	0.14	0.18	0.04	–	–
HA-Gαo^(WT) (from UniProt P09471) E237K	0.07	0.11	0.04	–	–
HA-Gαo^(WT) (from UniProt P09471) Q205L; R209H	–	–	–	–	0.04

Next, values leading:

response [1] [Net BRET]	response ([2]; 10 μM DAMGO, parent: est. 0.32) [BRET ratio]	response ([2]; vehicle, parent: est. 0.12) [BRET ratio]	response ([3]; no-Gαo control bar est. 0.07) [BRET ratio]	response [3, 4] [BRET ratio]	Substance
–	–	–	0.39	–	HA-Gαo^(WT) (from UniProt P09471) Q205L
0.04	0.08	0.035	–	–	HA-Gαo^(WT) (from UniProt P09471) G203E
–	–	–	–	0.41	HA-Gαo^(WT) (from UniProt P09471) Q205L; N242T
–	–	–	–	0.37	HA-Gαo^(WT) (from UniProt P09471) Q205L; A221D
0.03	0.06	0.035	–	–	HA-Gαo^(WT) (from UniProt P09471) E246G
–	–	–	–	0.14	HA-Gαo^(WT) (from UniProt P09471) Q205L; E237K
–	–	–	–	0.08	HA-Gαo^(WT) (from UniProt P09471) Q205L; E246G
0.23	0.3	0.07	–	–	HA-Gαo^(WT) (from UniProt P09471) N242T
